The target of experiment [1] is optimized bait-PAR-Grb2, GFP-fused (with inserted flexible linker sequences between fluorophore and Grb2) (UniProt P62993). Put plainly: subcellular micropatterning (bait-prey copatterning, TIRF microscopy); live HeLa cells co-expressing bait-PAR-Grb2 and fluorescent prey on anti-HA antibody patterned COP substrate; bait-normalized prey contrast; basal conditions, before EGF.

The target is the same in experiment [2]. The description is as above. This is another data set of the same source.
Experiment [3] shares this target. The experiment is described as follows: TIR-FRAP on bait micropatterns; live HeLa cells co-transfected with bait-PAR-Grb2 and prey on anti-HA patterns; EGF (170 nM) for at least 5 min before FRAP; single patterns bleached for 500 ms; bi-exponential, diffusion-uncoupled two-component fit.
Experiment [4] shares this target. The experiment is described as follows: subcellular micropatterning (bait-prey copatterning, TIRF microscopy); live HeLa cells co-expressing bait-PAR-Grb2 and fluorescent prey on anti-HA antibody patterned COP substrate; bait-normalized prey contrast; after EGF stimulation (170 nM, 10 min).
In experiment [5] the target is optimized bait-PAR-Grb2, RFP-fused (UniProt P62993). The experiment is described as follows: subcellular micropatterning (bait-prey copatterning, TIRF microscopy); competition in live HeLa cells: bait-PAR-Grb2-RFP and Gab1-GFP on anti-HA patterns, cyclo(YpVNFΦrpPRR) added to the cells (100 μM over time; dose-response); bait-normalized contrast set between 0 and 100%.

The target is the same in experiment [6]. The experiment is described as follows: subcellular micropatterning (bait-prey copatterning, TIRF microscopy); competition in live HeLa cells: bait-PAR-Grb2-RFP and GFP-fused SOS1 on anti-HA patterns, cyclo(YpVNFΦrpPRR) added to the cells (100 μM over time; dose-response); bait-normalized contrast set between 0 and 100%.
Experiment [7] has as its target optimized bait-PAR-Grb2, RFP-fused, P62993. The experiment is described as follows: subcellular micropatterning (bait-prey copatterning, TIRF microscopy); live HeLa cells with bait-PAR-Grb2-RFP and GFP-fused Gab1 or SOS1 on anti-HA patterns, treated with 10 μM actinomycin D, copatterning followed over time. Particulars: remark: other sources report otherwise.
Experiment [8] shares this target. The experiment is described as follows: subcellular micropatterning (bait-prey copatterning, TIRF microscopy); live HeLa cells co-expressing bait-PAR-Grb2 and fluorescent prey on anti-HA antibody patterned COP substrate; bait-normalized prey contrast; basal conditions, before EGF. Particulars: remark: other sources report otherwise.
Experiment [9] has the same target. The experiment is described as follows: TIR-FRAP on bait micropatterns; live HeLa cells co-transfected with bait-PAR-Grb2 and prey on anti-HA patterns; EGF (170 nM) for at least 5 min before FRAP; single patterns bleached for 500 ms; bi-exponential, diffusion-uncoupled two-component fit. Particulars: remark: other sources report otherwise.
The target is the same in experiment [10]. Put plainly: subcellular micropatterning (bait-prey copatterning, TIRF microscopy); live HeLa cells co-expressing bait-PAR-Grb2 and fluorescent prey on anti-HA antibody patterned COP substrate; bait-normalized prey contrast; after EGF stimulation (170 nM, 10 min). Particulars: remark: other sources report otherwise.

Regarding “SHC-transforming protein 1 (Shc1), RFP-fused (from UniProt P29353 1-583) (natural protein)”, the figures for the bait-normalized fluorescence contrast <c prey/bait> in experiment [1], in [2] and in experiment [4] were 0.21, 0.14 and 0.45, respectively. The half-time of dissociation (FRAP) in [3] came out at 10 s. In experiment [3], this molecule had a k slow (exchange rate, FRAP) of 0.103 s⁻¹.

As a reminder, the EC50 is the concentration giving half of the maximal effect. In [5], “cell-permeable cyclic peptide cyclo(YpVNFΦrpPRR)” registered a concentration for a half-maximal effect (EC50) of 68 µM, a dissociation half-life of Gab1 from Grb2 at 100 μM peptide of 42 s and a maximum prey dissociation at 100 μM peptide (Gab1 from Grb2) of 70 to 75%. In experiment [6], this molecule showed an EC50 of 63 µM, a dissociation half-life of SOS1 from Grb2 at 100 μM peptide of 36 s and a maximum prey dissociation at 100 μM peptide (SOS1 from Grb2) of 70 to 75%.

B1: son of sevenless protein 1 (SOS1), GFP-fused, Q07889 1-1333 (natural protein)
chain: MQAQQLPYEFFSEENAPKWRGLLVPALKKVQGQVHPTLESNDDALQYVEELILQLLNMLCQAQPRSASDVEERVQKSFPHPIDKWAIADAQSAIEKRKRRNPLSLPVEKIHPLLKEVLGYKIDHQVSVYIVAVLEYISADILKLVGNYVRNIRHYEITKQDIKVAMCADKVLMDMFHQDVEDINILSLTDEEPSTSGEQTYYDLVKAFMAEIRQYIRELNLIIKVFREPFVSNSKLFSANDVENIFSRIVDIHELSVKLLGHIEDTVEMTDEGSPHPLVGSCFEDLAEELAFDPYESYARDILRPGFHDRFLSQLSKPGAALYLQSIGEGFKEAVQYVLPRLLLAPVYHCLHYFELLKQLEEKSEDQEDKECLKQAITALLNVQSGMEKICSKSLAKRRLSESACRFYSQQMKGKQLAIKKMNEIQKNIDGWEGKDIGQCCNEFIMEGTLTRVGAKHERHIFLFDGLMICCKSNHGQPRLPGASNAEYRLKEKFFMRKVQINDKDDTNEYKHAFEIILKDENSVIFSAKSAEEKNNWMAALISLQYRSTLERMLDVTMLQEEKEEQMRLPSADVYRFAEPDSEENIIFEENMQPKAGIPIIKAGTVIKLIERLTYHMYADPNFVRTFLTTYRSFCKPQELLSLIIERFEIPEPEPTEADRIAIENGDQPLSAELKRFRKEYIQPVQLRVLNVCRHWVEHHFYDFERDAYLLQRMEEFIGTVRGKAMKKWVESITKIIQRKKIARDNGPGHNITFQSSPPTVEWHISRPGHIETFDLLTLHPIEIARQLTLLESDLYRAVQPSELVGSVWTKEDKEINSPNLLKMIRHTTNLTLWFEKCIVETENLEERVAVVSRIIEILQVFQELNNFNGVLEVVSAMNSSPVYRLDHTFEQIPSRQKKILEEAHELSEDHYKKYLAKLRSINPPCVPFFGIYLTNILKTEEGNPEVLKRHGKELINFSKRRKVAEITGEIQQYQNQPYCLRVESDIKRFFENLNPMGNSMEKEFTDYLFNKSLEIEPRNPKPLPRFPKKYSYPLKSPGVRPSNPRPGTMRHPTPLQQEPRKISYSRIPESETESTASAPNSPRTPLTPPPASGASSTTDVCSVFDSDHSSPFHSSNDTVFIQVTLPHGPRSASVSSISLTKGTDEVPVPPPVPPRRRPESAPAESSPSKIMSKHLDSPPAIPPRQPTSKAYSPRYSISDRTSISDPPESPPLLPPREPVRTPDVFSSSPLHLQPPPLGKKSDHGNAFFPNSPSPFTPPPPQTPSPHGTRRHLPSPPLTQEVDLHSIAGPPVPPRQSTSQHIPKLPPKTYKREHTHPSMHRDGPPLLENAHSS
As to B1, in experiment [7], the dissociation half-life with 10 μM actinomycin D came out at 84 s and the reduction of copatterning with 10 μM actinomycin D was 25%. This molecule returned a bait-normalized fluorescence contrast <c prey/bait> in experiment [8] of 0.55. In experiment [9], this molecule registered a half-time of dissociation (FRAP) of 13 s and a k slow (exchange rate, FRAP) of 0.074 s⁻¹. The molecule also gave a bait-normalized fluorescence contrast <c prey/bait> in experiment [10] of 0.56.

The record behind these values is paper PMC8630788.
